The values below come from patent US20210290678A1 (published 2021).

Test [1] concerns the target T1, murine PTK7 (murine, UniProt Q8BKG3 23-1062).
T1 chain: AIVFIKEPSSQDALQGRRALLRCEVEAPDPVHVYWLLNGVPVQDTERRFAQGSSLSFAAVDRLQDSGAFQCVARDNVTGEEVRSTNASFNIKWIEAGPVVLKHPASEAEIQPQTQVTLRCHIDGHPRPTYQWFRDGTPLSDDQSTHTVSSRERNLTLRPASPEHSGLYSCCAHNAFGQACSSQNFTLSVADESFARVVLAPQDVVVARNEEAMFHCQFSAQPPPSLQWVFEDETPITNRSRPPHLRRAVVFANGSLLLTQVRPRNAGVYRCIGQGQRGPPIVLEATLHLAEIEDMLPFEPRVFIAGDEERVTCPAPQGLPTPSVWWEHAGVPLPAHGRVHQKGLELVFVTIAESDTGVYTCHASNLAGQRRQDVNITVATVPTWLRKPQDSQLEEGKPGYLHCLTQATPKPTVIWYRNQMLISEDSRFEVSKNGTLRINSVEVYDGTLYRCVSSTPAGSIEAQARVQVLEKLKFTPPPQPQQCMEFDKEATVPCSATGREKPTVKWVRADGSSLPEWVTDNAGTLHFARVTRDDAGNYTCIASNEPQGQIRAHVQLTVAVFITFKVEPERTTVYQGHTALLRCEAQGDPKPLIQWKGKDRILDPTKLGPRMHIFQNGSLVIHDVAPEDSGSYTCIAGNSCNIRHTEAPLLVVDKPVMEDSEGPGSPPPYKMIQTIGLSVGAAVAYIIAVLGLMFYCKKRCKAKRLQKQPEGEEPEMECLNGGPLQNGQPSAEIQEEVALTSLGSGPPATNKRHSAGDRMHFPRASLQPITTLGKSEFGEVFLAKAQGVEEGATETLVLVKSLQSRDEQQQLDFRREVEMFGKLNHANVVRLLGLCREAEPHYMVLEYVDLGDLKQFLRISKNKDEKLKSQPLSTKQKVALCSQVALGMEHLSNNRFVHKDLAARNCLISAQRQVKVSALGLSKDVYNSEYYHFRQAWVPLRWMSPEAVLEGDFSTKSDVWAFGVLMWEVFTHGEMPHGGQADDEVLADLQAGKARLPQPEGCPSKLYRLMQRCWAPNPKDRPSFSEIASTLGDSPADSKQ
The experiment in a line: flow cytometry cell binding titration; 3T3L1 murine cells; unit from dose axis.

Test [2] has as its target T2, human protein tyrosine kinase 7 (PTK7) (human, UniProt Q13308 31-1070).
T2 chain: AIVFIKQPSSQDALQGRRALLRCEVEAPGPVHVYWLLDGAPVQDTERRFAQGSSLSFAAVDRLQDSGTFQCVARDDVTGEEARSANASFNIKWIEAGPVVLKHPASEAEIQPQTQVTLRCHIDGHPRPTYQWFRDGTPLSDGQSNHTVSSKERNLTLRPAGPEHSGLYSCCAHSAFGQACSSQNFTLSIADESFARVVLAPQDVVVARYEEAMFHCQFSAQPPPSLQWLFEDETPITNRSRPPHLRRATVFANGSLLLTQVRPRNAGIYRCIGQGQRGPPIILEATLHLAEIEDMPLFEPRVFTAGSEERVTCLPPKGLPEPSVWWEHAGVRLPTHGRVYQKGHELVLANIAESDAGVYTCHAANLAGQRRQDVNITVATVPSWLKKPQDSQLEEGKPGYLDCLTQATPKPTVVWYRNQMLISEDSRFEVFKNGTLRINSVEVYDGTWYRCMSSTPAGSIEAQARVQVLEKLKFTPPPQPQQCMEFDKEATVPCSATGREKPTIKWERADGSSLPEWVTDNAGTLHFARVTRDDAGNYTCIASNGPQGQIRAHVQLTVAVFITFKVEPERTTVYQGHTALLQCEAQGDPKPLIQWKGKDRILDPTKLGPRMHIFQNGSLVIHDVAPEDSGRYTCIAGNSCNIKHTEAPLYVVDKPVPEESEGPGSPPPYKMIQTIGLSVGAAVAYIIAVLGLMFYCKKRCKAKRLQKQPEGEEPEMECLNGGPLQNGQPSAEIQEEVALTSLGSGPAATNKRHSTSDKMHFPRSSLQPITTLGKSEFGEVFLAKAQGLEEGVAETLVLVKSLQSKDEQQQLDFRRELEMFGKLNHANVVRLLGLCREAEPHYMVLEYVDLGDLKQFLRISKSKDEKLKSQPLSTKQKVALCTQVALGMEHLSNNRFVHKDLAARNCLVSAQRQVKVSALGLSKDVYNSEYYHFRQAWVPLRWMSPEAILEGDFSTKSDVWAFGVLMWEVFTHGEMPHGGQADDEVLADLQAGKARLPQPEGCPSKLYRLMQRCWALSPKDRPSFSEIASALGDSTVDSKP
The experiment in a line: flow cytometry cell binding titration; HCC70 human cells; unit from dose axis.

B1: CTX181 mAb (custom recombinant monoclonal anti-PTK7 antibody, Creative Biolabs) (antibody, V domains shown)
VH: QVQLVESGGGVVQPGRSLRLSCAASGFTFSSYGMHWVRQAPGKGLEWVAVIWDDGSNKYYVDSVKGRFTISRDNSKNTLYLQMNSLRAEDTAVYYCARDDYYGSGSFNSYYGTDVWGQGTTVTVSS
VL: EIVLTQSPATLSLSPGERATLSCRASQSVSIYLAWYQQKPGQAPRLLIYDASNRATGIPARFSGSGSGTDFTLTISSLEPEDFAVYYCQQRSNWPPFTFGPGTKVDIKR
With B1, the Kd was 0.662 nM in test [1] and 1.53 nM in test [2].
